B1: FAM98B (parent)
chain: QLDKNSEVYQEVQAMFDTLGIPKS
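Note: lentivirally expressed fusions sorted by FACS into six bins by GFP to DsRed ratio, PSI derived from sequencing read proportions per bin multiplied by bin number.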

The data set covers variants of B1. Kind of data set: protein stability index of a GFP-peptide fusion (GPS, HEK-293T) (PSI 1-6); higher = more stable. Particulars: c terminus: a fixed tail appended.
QLDKNSEVYQEVQAMKDTLGIPKS: the protein stability index is 4.07.

Turning to QLDKNSEVYQEVQAMGDTLGIPKS, the protein stability index stood at 3.78.

For QLDKNSEVYQEVQAMEDTLGIPKS, the protein stability index turned out to be 4.36.

Consider QLDKNSEVYQEVQAMVDTLGIPKS, for which the protein stability index turned out to be 3.94.

With QLDKNSEVYQEVQAMLDTLGIPKS, the protein stability index worked out at 3.12.

QLDKNSEVYQEVQAMHDTLGIPKS: the protein stability index worked out at 2.58.

As to QLDKNSEVYQEVQAMCDTLGIPKS, the protein stability index turned out to be 3.38.

As for QLDKNSEVYQEVQAMMDTLGIPKS, the protein stability index was determined as 3.3.

In the case of QLDKNSEVYQEVQAMYDTLGIPKS, the protein stability index came out at 3.57.

QLDKNSEVYQEVQAMRDTLGIPKS: the protein stability index was found to be 2.92.

QLDKNSEVYQEVQAMSDTLGIPKS: the protein stability index was 3.42.

QLDKNSEVYQEVQAMPDTLGIPKS: the protein stability index worked out at 4.42.

Consider QLDKNSEVYQEVQAMADTLGIPKS, for which the protein stability index was found to be 3.82.

Take QLDKNSEVYQEVQAMNDTLGIPKS: the protein stability index worked out at 3.77.

With QLDKNSEVYQEVQAMQDTLGIPKS, the protein stability index amounted to 4.11.

Regarding QLDKNSEVYQEVQAMWDTLGIPKS, the protein stability index worked out at 2.1.

Regarding QLDKNSEVYQEVQAMTDTLGIPKS, the protein stability index stood at 3.78.

On to QLDKNSEVYQEVQAMIDTLGIPKS, for which the protein stability index came out at 2.79.

On to QLDKNSEVYQTVQAMFDTLGIPKS, for which the protein stability index was 3.13.

Take QLDKNSEVYQIVQAMFDTLGIPKS: the protein stability index was found to be 1.67.

For the variant QLDKNSEVYQHVQAMFDTLGIPKS, the protein stability index is 3.46.

Take QLDKNSEVYQRVQAMFDTLGIPKS: the protein stability index came to 3.38.

Consider QLDKNSEVYQMVQAMFDTLGIPKS, for which the protein stability index is 2.36.

QLDKNSEVYQDVQAMFDTLGIPKS: the protein stability index was 2.86.

For QLDKNSEVYQAVQAMFDTLGIPKS, the protein stability index is 2.86.

Take QLDKNSEVYQYVQAMFDTLGIPKS: the protein stability index was 2.7.

With QLDKNSEVYQWVQAMFDTLGIPKS, the protein stability index stood at 1.27.

For QLDKNSEVYQSVQAMFDTLGIPKS, the protein stability index stood at 2.62.

As to QLDKNSEVYQNVQAMFDTLGIPKS, the protein stability index is 2.64.

Regarding QLDKNSEVYQGVQAMFDTLGIPKS, the protein stability index is 2.78.

For the variant QLDKNSEVYQKVQAMFDTLGIPKS, the protein stability index was found to be 1.69.

With QLDKNSEVYQPVQAMFDTLGIPKS, the protein stability index amounted to 2.88.

With QLDKNSEVYQFVQAMFDTLGIPKS, the protein stability index was determined as 2.07.

Regarding QLDKNSEVYQVVQAMFDTLGIPKS, the protein stability index is 2.56.

Take QLDKNSEVYQCVQAMFDTLGIPKS: the protein stability index is 2.48.

As for QLDKNSEVYQQVQAMFDTLGIPKS, the protein stability index came to 2.3.

As for QLDKNSEVYQLVQAMFDTLGIPKS, the protein stability index was determined as 2.28.

QLDKNSEVYQEVFAMFDTLGIPKS: the protein stability index was 2.53.

In the case of QLDKNSEVYQEVGAMFDTLGIPKS, the protein stability index is 3.09.

As to QLDKNSEVYQEVYAMFDTLGIPKS, the protein stability index turned out to be 2.36.

With QLDKNSEVYQEVRAMFDTLGIPKS, the protein stability index stood at 2.59.

Consider QLDKNSEVYQEVVAMFDTLGIPKS, for which the protein stability index is 3.15.

Take QLDKNSEVYQEVAAMFDTLGIPKS: the protein stability index turned out to be 3.58.

On to QLDKNSEVYQEVTAMFDTLGIPKS, for which the protein stability index was 3.86.

With QLDKNSEVYQEVNAMFDTLGIPKS, the protein stability index came out at 2.56.

As for QLDKNSEVYQEVLAMFDTLGIPKS, the protein stability index came out at 3.29.

In the case of QLDKNSEVYQEVSAMFDTLGIPKS, the protein stability index turned out to be 3.24.

On to QLDKNSEVYQEVHAMFDTLGIPKS, for which the protein stability index turned out to be 3.03.

On to QLDKNSEVYQEVDAMFDTLGIPKS, for which the protein stability index was found to be 3.82.

For QLDKNSEVYQEVCAMFDTLGIPKS, the protein stability index stood at 2.88.

On to QLDKNSEVYQEVEAMFDTLGIPKS, for which the protein stability index is 3.34.

Consider QLDKNSEVYQEVPAMFDTLGIPKS, for which the protein stability index came to 3.27.

As for QLDKNSEVYQEVIAMFDTLGIPKS, the protein stability index is 3.19.

For QLDKNSEVYQEVKAMFDTLGIPKS, the protein stability index was 2.55.

Consider QLDKNSEVYQEVWAMFDTLGIPKS, for which the protein stability index is 2.24.

Consider QLDKNSEVYQEVMAMFDTLGIPKS, for which the protein stability index came to 2.73.

Regarding QLDKNSEVYQEVQEMFDTLGIPKS, the protein stability index came to 3.79.

As for QLDKNSEVYQEVQLMFDTLGIPKS, the protein stability index came out at 2.83.

For QLDKNSEVYQEVQFMFDTLGIPKS, the protein stability index came to 2.64.

QLDKNSEVYQEVQSMFDTLGIPKS: the protein stability index amounted to 3.37.

QLDKNSEVYQEVQHMFDTLGIPKS: the protein stability index came out at 3.14.

Turning to QLDKNSEVYQEVQTMFDTLGIPKS, the protein stability index is 3.34.

QLDKNSEVYQEVQIMFDTLGIPKS: the protein stability index is 3.22.

Regarding QLDKNSEVYQEVQWMFDTLGIPKS, the protein stability index worked out at 2.63.

Regarding QLDKNSEVYQEVQNMFDTLGIPKS, the protein stability index is 4.67.

As to QLDKNSEVYQEVQRMFDTLGIPKS, the protein stability index amounted to 2.55.

Turning to QLDKNSEVYQEVQYMFDTLGIPKS, the protein stability index was 3.22.

In the case of QLDKNSEVYQEVQGMFDTLGIPKS, the protein stability index amounted to 2.58.

With QLDKNSEVYQEVQMMFDTLGIPKS, the protein stability index was 2.89.

In the case of QLDKNSEVYQEVQKMFDTLGIPKS, the protein stability index turned out to be 3.03.

For QLDKNSEVYQEVQCMFDTLGIPKS, the protein stability index was 3.04.

As to QLDKNSEVYQEVQDMFDTLGIPKS, the protein stability index was 3.82.

As for QLDKNSEVYQEVQQMFDTLGIPKS, the protein stability index amounted to 3.61.

As for QLDKNSEVYQEVQVMFDTLGIPKS, the protein stability index worked out at 2.77.

Regarding QLDKNSEVYQEVQPMFDTLGIPKS, the protein stability index was 3.81.

For QLDKNSEVVQEVQAMFDTLGIPKS, the protein stability index is 3.27.

As for QLDKNSEVFQEVQAMFDTLGIPKS, the protein stability index stood at 2.72.

For QLDKNSEVAQEVQAMFDTLGIPKS, the protein stability index was determined as 4.12.

Take QLDKNSEVSQEVQAMFDTLGIPKS: the protein stability index is 3.78.

On to QLDKNSEVEQEVQAMFDTLGIPKS, for which the protein stability index was determined as 4.4.

As to QLDKNSEVMQEVQAMFDTLGIPKS, the protein stability index came to 3.66.

QLDKNSEVCQEVQAMFDTLGIPKS: the protein stability index turned out to be 3.58.

Consider QLDKNSEVHQEVQAMFDTLGIPKS, for which the protein stability index is 3.55.

As for QLDKNSEVWQEVQAMFDTLGIPKS, the protein stability index was determined as 3.31.

In the case of QLDKNSEVDQEVQAMFDTLGIPKS, the protein stability index is 4.2.

As for QLDKNSEVTQEVQAMFDTLGIPKS, the protein stability index is 4.39.

On to QLDKNSEVIQEVQAMFDTLGIPKS, for which the protein stability index worked out at 3.67.

In the case of QLDKNSEVQQEVQAMFDTLGIPKS, the protein stability index is 3.98.

In the case of QLDKNSEVRQEVQAMFDTLGIPKS, the protein stability index is 3.12.

On to QLDKNSEVNQEVQAMFDTLGIPKS, for which the protein stability index worked out at 3.52.

Regarding QLDKNSEVKQEVQAMFDTLGIPKS, the protein stability index was 3.72.

Turning to QLDKNSEVPQEVQAMFDTLGIPKS, the protein stability index was found to be 3.57.

In the case of QLDKNSEVGQEVQAMFDTLGIPKS, the protein stability index came out at 3.5.

For the variant QLDKNSEVLQEVQAMFDTLGIPKS, the protein stability index was found to be 3.2.

The record behind these values is the supplement of paper PMC10567573.
